# System: Zymoseptoria tritici (SEPTTR-184)
# Assay: Cyp51 dsRNA tile (fragment) foliar application bioassay (Example 6)
# Format: in vivo
# Conditions: for ED50 (ppm) SEPTTR-184 1DP / ED80 (ppm) SEPTTR-184 1DP / Disease Control (%) SEPTTR-184 1DP: 1 day protectant; for ED50 (ppm) SEPTTR-184 1DP / ED80 (ppm) SEPTTR-184 1DP / ED50 (ppm) SEPTTR-184 3DC / ED80 (ppm) SEPTTR-184 3DC: calculated from disease control; for Disease Control (%) SEPTTR-184 1DP / Disease Control (%) SEPTTR-184 3DC: average of 2 trials; for ED50 (ppm) SEPTTR-184 3DC / ED80 (ppm) SEPTTR-184 3DC / Disease Control (%) SEPTTR-184 3DC: 3 days curative
# Experimental: The 200 ppm concentration for each treatment was prepared by adding the calculated volume of the corresponding dsRNA solution in TE buffer. […] A non-target dsRNA control (YFP), a TE/phosphate buffer control, disease pressure control, and clean plant control were included.
# These plants were inoculated with an aqueous spore suspension of Zymoseptoria tritici either prior to or after fungicidal treatments. After inoculation the plants were kept in 100% relative humidity to allow spores to germinate and infect the leaves. The plants were then transferred to a greenhouse set at 20° C. until disease developed.
Molecule,ED50 (ppm) SEPTTR-184 1DP,ED80 (ppm) SEPTTR-184 1DP,Disease Control (%) SEPTTR-184 1DP (rate 3.125 ppm),Disease Control (%) SEPTTR-184 1DP (rate 12.5 ppm),Disease Control (%) SEPTTR-184 1DP (rate 50 ppm),Disease Control (%) SEPTTR-184 1DP (rate 200 ppm),ED50 (ppm) SEPTTR-184 3DC,ED80 (ppm) SEPTTR-184 3DC,Disease Control (%) SEPTTR-184 3DC (rate 3.125 ppm),Disease Control (%) SEPTTR-184 3DC (rate 12.5 ppm),Disease Control (%) SEPTTR-184 3DC (rate 50 ppm),Disease Control (%) SEPTTR-184 3DC (rate 200 ppm),curative activity against SEPTTR (ranking) (curative test),level of control among the fragments (ranking) (fragments compared with each other)
"MgCyp51-T3: dsRNA tile of Zymoseptoria tritici Cyp51, 230 bp, location 450-679 (nucleic acid, listed as Zymoseptoria tritici) CGTCAAGTACGGCCTCACAACCTCTGCCCTCCAGTCCTACGTGACCTTGATCGCCGCCGAGACCCGCCAGTTCTTCGACCGCAACAACCCTCATAAGAAGTTCGCATCGACCAGCGGCACGATCGATCTCCCACCAGCCCTCGCCGAACTTACGATCTATACTGCCAGCCGATCATTGCAAGGAAAGGAAGTCCGCGAGGGCTTCGACTCGTCTTTCGCGGACCTCTACC",<3.125 ppm,>200 ppm,64%,72%,69%,74%,<3.125 ppm,>200 ppm,73%,73%,72%,76%,,
"MgCyp51-T9: dsRNA tile of Zymoseptoria tritici Cyp51, 172 bp, location 1-172 (nucleic acid, listed as Zymoseptoria tritici, double-stranded RNA) ATGGGTCTCCTCCAGGAAGTCCTCGCGCAGTTCGACGCGCAATTCGGCCAGACCAGCCTCTGGAAACTTGTCGGACTTGGATTCCTCGCCTTCAGCACGCTCGCCATCCTCCTCAATGTCCTCTCACAACTTCTCTTCCGTGGCAAGTTGTCCGATCCGCCACTCGTATTCC",<3.125 ppm,>200 ppm,53%,53%,57%,76%,<3.125 ppm,>200 ppm,52%,46%,65%,72%,,
"MgCyp51-T2: dsRNA tile of Zymoseptoria tritici Cyp51, 165 bp, location 48-212 (nucleic acid, listed as Zymoseptoria tritici) CCAGACCAGCCTCTGGAAACTTGTCGGACTTGGATTCCTCGCCTTCAGCACGCTCGCCATCCTCCTCAATGTCCTCTCACAACTTCTCTTCCGTGGCAAGTTGTCCGATCCGCCACTCGTATTCCACTGGGTGCCCTTCATCGGAAGCACCATCACATACGGCAT",<3.125 ppm,>200 ppm,53%,67%,70%,75%,<3.125 ppm,125 ppm,76%,72%,76%,84%,provided the best curative activity against SEPTTR,provided the best level of control
"MgCyp51-T7: dsRNA tile of Zymoseptoria tritici Cyp51, 111 bp, location 1490-1600 (nucleic acid, listed as Zymoseptoria tritici, long dsRNA tile, purified, chemistry not given here) CGACGATGGTTCGCGATTTCAAGTTTTACAATGTGGATGGCAGCGACAACGTGGTGGGTACGGATTACAGCAGTTTGTTCAGCCGGCCGCTGTCGCCGGCAGTAGTAAAGT",3.125 ppm,>200 ppm,50%,64%,66%,70%,5.331 ppm,>200 ppm,46%,63%,66%,72%,,
"MgCyp51-T1: dsRNA tile of Zymoseptoria tritici Cyp51, 232 bp, location 166-397 (nucleic acid, listed as Zymoseptoria tritici) GTATTCCACTGGGTGCCCTTCATCGGAAGCACCATCACATACGGCATCGACCCATACAAGTTCTTCTTCTCCTGTCGGGAAAAGTATGGAGATGTCTTTACATTCATCCTGCTGGGAAAGAAGACGACGGTGTGCTTGGGCACCAAGGGCAATGATTTTATTTTGAATGGAAAACTGAAGGACGTCAACGCGGAGGAGATATACAGCCCGCTGACCACTCCTGTCTTTGGCA",<3.125 ppm,>200 ppm,65%,68%,70%,77%,<3.125 ppm,>200 ppm,71%,78%,68%,70%,,
"MgCyp51-T4: dsRNA tile of Zymoseptoria tritici Cyp51, 178 bp, location 647-824 (nucleic acid, listed as Zymoseptoria tritici) AGGGCTTCGACTCGTCTTTCGCGGACCTCTACCACTACCTCGATATGGGATTCACACCGATCAACTTTATGCTTCCGTGGGCGCCCCTTCCCCAGAACCGACGCCGCGATTATGCGCAGAAGAAGATGTCCGAGACATACATGTCGATCATTCAGAAGAGACGAGAGTCCAAAACGGG",<3.125 ppm,200 ppm,53%,65%,61%,80%,<3.125 ppm,>200 ppm,59%,52%,67%,75%,,
"MgCyp51-T10: dsRNA tile of Zymoseptoria tritici Cyp51, 172 bp, location 345-516 (nucleic acid, listed as Zymoseptoria tritici) GGACGTCAACGCGGAGGAGATATACAGCCCGCTGACCACTCCTGTCTTTGGCAAGGATGTGGTTTATGATTGTCCCAATTCGAAGCTCATGGAGCAGAAGAAGTTCGTCAAGTACGGCCTCACAACCTCTGCCCTCCAGTCCTACGTGACCTTGATCGCCGCCGAGACCCGC",<3.125 ppm,>200 ppm,58%,64%,73%,75%,32.692 ppm,>200 ppm,31%,43%,56%,58%,,
